Assay results as given in US20240059769A1 (BIOLOJIC DESIGN, published 2024).
Residue numbers refer to the chain shown, from its start. Read-outs that look alike come from different tables or passages of the source. Each block holds one binder with its values, some of them ahead of it.

Assays:
human TSLP [1] = biological target: T1, human TSLP (human, UniProt Q969D9 29-159); experiment: yeast surface display, affinity maturation library
T1 construct: also called hTSLP; rhTSLP

recombinant human IL-13 [2] = biological target: T2, recombinant human IL-13 (human, UniProt P35225 35-146); experiment: SPR
T2 construct: also called rh-IL-13; hIL-13

human TSLP [3] = biological target: T1, human TSLP; experiment: SPR
[4] = biological target: T3, recombinant cynomolgus monkey IL-13 (cynomolgus monkey, UniProt Q0PW92 21-132); experiment: SPR
T3 construct: bought; also called rc-IL-13; cIL-13

hTSLP-His [5] = biological target: T4, hTSLP-His (human, UniProt Q969D9 29-159, limits assumed); experiment: competition ELISA, 7 nM TSLP-His pre-incubated with antibody; competitor Tezepelumab coated
T4 construct: bought; also called hTSLP (ACROBiosystems TSP-H52Hb); not shown: His tag

recombinant human IL-13 [6] = biological target: T2, recombinant human IL-13; experiment: cell-based or functional assay
[7] = biological target: T5, cynomolgus monkey (cyno) TSLP (cynomolgus monkey, UniProt A0A7N9CAT7 29-159); experiment: SPR
T5 construct: also called cTSLP; cynomolgus TSLP

hTSLP-His [8] = biological target: T4, hTSLP-His; experiment: cell-based or functional assay
recombinant human IL-13 [9] = biological target: T2, recombinant human IL-13; experiment: cell-based or functional assay; remark: listed apart in the source
human TSLP [10] = biological target: T1, human TSLP; experiment: cell-based or functional assay
recombinant human IL-13 [11] = biological target: T2, recombinant human IL-13; experiment: SPR; remark: listed apart in the source
human TSLP [12] = biological target: T1, human TSLP; experiment: SPR; remark: listed apart in the source

T2 sequence (P35225 35-146 limits assumed): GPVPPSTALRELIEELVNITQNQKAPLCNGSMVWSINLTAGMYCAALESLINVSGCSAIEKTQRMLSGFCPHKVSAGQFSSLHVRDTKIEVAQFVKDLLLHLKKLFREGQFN
T3 sequence (Q0PW92 entry or part of it): as the sequence (P35225 35-146 limits assumed) above, with G1S, R10K, M42V, S67N, H83R, L100V counted along it
T5 sequence (A0A7N9CAT7 entry or part of it): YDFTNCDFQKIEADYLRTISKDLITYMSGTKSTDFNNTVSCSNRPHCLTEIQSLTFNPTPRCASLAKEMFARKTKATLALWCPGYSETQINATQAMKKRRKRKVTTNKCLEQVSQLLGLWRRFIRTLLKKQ

binding result (human TSLP [1]): binds
B1: Ab clone 38.040 (yeast surface display) (scFv, V domains shown)
VH: QMQLVESGGGVVQPGRSLRLSCAASGFDFRTYGMHWVRQAPGKGLEWVAVIWYDGSITHYADSVKGRFTITRDNSKNTLNLQMNSLRAEDTAVYYCVRAPQWYLTAEAFDLWGQGTMVTVSS
VL: SYVLTQPPSVSVAPGQTARITCGGNLIGTKLVHWYQQKPGQAPVLVVYDDSDRPSRIPERFSGSNSGNTATLTISRVEAGDEADYYCQVWDHNEDEVVFGGGTKLTVL
notes: YSD clone; also called BDG38_040

Kd (recombinant human IL-13 [2]): 0.0198 nM
koff (recombinant human IL-13 [2]): 0.00013 s⁻¹
kon (recombinant human IL-13 [2]): 6.57e+06 M⁻¹ s⁻¹
Kd (human TSLP [3]): 0.0118 nM
koff (human TSLP [3]): 0.000113 s⁻¹
kon (human TSLP [3]): 9.57e+06 M⁻¹ s⁻¹
Kd [4]: 0.0752 nM
koff [4]: 0.00187 s⁻¹
kon [4]: 2.49e+07 M⁻¹ s⁻¹
IC50 (hTSLP-His [5]): 7.31 nM
HEK-IL-13 [nM] (IC50, STAT6 reporter) (recombinant human IL-13 [6]): 0.103 nM
Kd [7]: 0.00901 nM
koff [7]: 5.53e-05 s⁻¹
kon [7]: 6.14e+06 M⁻¹ s⁻¹
IC50 [pM], STAT5 phosphorylation inhibition in MUTZ5 cells (hTSLP-His [8]): 43.4 pM
IC50 CD23 (recombinant human IL-13 [9]): 0.00656 nM
IC50 TARC (human TSLP [10]): 0.00756 nM
B2: BDG38.090 (antibody, V domains shown)
VH: B1 VH with R19T, D28E, V48L, A49G, Y53D, I57N, A88V, V97A
VL: SYILTQPPSVSVAPGETARITCGGNLIGARLVHWYQQKPGQAPVLVVYDDSDRPSRIPERFSGSNIGNTATLTIEDVEEGDEADYYCQVWDYYSDHMVFGGGTKLTVL
notes: IgG1

Kd (recombinant human IL-13 [2]): 0.0095 nM
koff (recombinant human IL-13 [2]): 5.37e-05 s⁻¹
kon (recombinant human IL-13 [2]): 5.65e+06 M⁻¹ s⁻¹
Kd (human TSLP [3]): 0.00392 nM
koff (human TSLP [3]): 2.46e-05 s⁻¹
kon (human TSLP [3]): 6.28e+06 M⁻¹ s⁻¹
Kd [4]: 0.0428 nM
koff [4]: 0.00129 s⁻¹
kon [4]: 3.01e+07 M⁻¹ s⁻¹
IC50 (hTSLP-His [5]): 7.38 nM
HEK-IL-13 [nM] (IC50, STAT6 reporter) (recombinant human IL-13 [6]): 0.12 nM
Kd [7]: 0.00448 nM
koff [7]: 1.72e-05 s⁻¹
kon [7]: 3.84e+06 M⁻¹ s⁻¹
IC50 [pM], STAT5 phosphorylation inhibition in MUTZ5 cells (hTSLP-His [8]): 33 pM
IC50 CD23 (recombinant human IL-13 [9]): 0.0675 nM
IC50 TARC (human TSLP [10]): 5.88 nM
B7: BDG38.092 (antibody, V domains shown)
VH: B1 VH with R19T, D28E, V48L, Y53D, I57N, A88V
VL: B2 VL with I3V, R19T, V47I, E75S
notes: IgG1

binding result (human TSLP [1]): binds
B10: Ab clone 38.026 (yeast surface display) (scFv, V domains shown)
VH: B1 VH with D28A, I57A, T105S
VL: B1 VL with R19T, T29S, S66I, N93S, E94S, E96H
notes: YSD clone; also called BDG38_026

Second part, the binder before the results:

B3: BDG38.116 (antibody, V domains shown)
VH: B1 VH with R19T, D28E, Y53D, I57N, A88V
VL: B2 VL with I3V, E16Q, R19T, V47I, D76R, E79A, H96T
notes: IgG1
Kd (recombinant human IL-13 [2]): 0.021 nM
koff (recombinant human IL-13 [2]): 0.000116 s⁻¹
kon (recombinant human IL-13 [2]): 5.51e+06 M⁻¹ s⁻¹
Kd (human TSLP [3]): 0.00727 nM
koff (human TSLP [3]): 3.95e-05 s⁻¹
kon (human TSLP [3]): 5.44e+06 M⁻¹ s⁻¹
Kd [4]: 0.027 nM
koff [4]: 0.000847 s⁻¹
kon [4]: 3.14e+07 M⁻¹ s⁻¹
IC50 (hTSLP-His [5]): 5.12 nM
HEK-IL-13 [nM] (IC50, STAT6 reporter) (recombinant human IL-13 [6]): 0.18 nM
Kd [7]: 0.0271 nM
koff [7]: 0.000386 s⁻¹
kon [7]: 1.43e+07 M⁻¹ s⁻¹
IC50 CD23 (recombinant human IL-13 [9]): 0.0837 nM
IC50 TARC (human TSLP [10]): 59.4 nM

B4: BDG38.096 (antibody, V domains shown)
VH: B1 VH with D28E, Y53D, I57N, A88V
VL: B2 VL with V47I, E75S, D76R, Y93S, H96S
notes: IgG1
Kd (recombinant human IL-13 [2]): 0.0251 nM
koff (recombinant human IL-13 [2]): 0.000155 s⁻¹
kon (recombinant human IL-13 [2]): 6.19e+06 M⁻¹ s⁻¹
Kd (human TSLP [3]): 0.021 nM
koff (human TSLP [3]): 0.000133 s⁻¹
kon (human TSLP [3]): 6.33e+06 M⁻¹ s⁻¹
Kd [4]: 0.0442 nM
koff [4]: 0.00242 s⁻¹
kon [4]: 5.47e+07 M⁻¹ s⁻¹
IC50 (hTSLP-His [5]): 5.87 nM
HEK-IL-13 [nM] (IC50, STAT6 reporter) (recombinant human IL-13 [6]): 0.15 nM
Kd [7]: 0.0181 nM
koff [7]: 6.14e-05 s⁻¹
kon [7]: 3.39e+06 M⁻¹ s⁻¹
IC50 CD23 (recombinant human IL-13 [9]): 0.25 nM
IC50 TARC (human TSLP [10]): 23.4 nM

B5: BDG38.137 (antibody, V domains shown)
VH: B1 VH with R16Q, D28E, Y53D, I57N
VL: SYVLTQPPSVSVAPGETATITCGGNLIGARLVHWYQQKPGQAPVLVIYDDSDRPSHIPERFSGSNSGNTATLTISRVEAGDEADYYCQVWDYSADTMVFGGGTKLTVL
notes: IgG1
IC50 (hTSLP-His [5]): 10.9 nM
HEK-IL-13 [nM] (IC50, STAT6 reporter) (recombinant human IL-13 [6]): 0.195 nM
Kd (recombinant human IL-13 [11]): 0.058 nM
koff (recombinant human IL-13 [11]): 0.000252 s⁻¹
kon (recombinant human IL-13 [11]): 4.34e+06 M⁻¹ s⁻¹
Kd (human TSLP [12]): 0.0161 nM
koff (human TSLP [12]): 7.01e-05 s⁻¹
kon (human TSLP [12]): 4.36e+06 M⁻¹ s⁻¹
IC50 [pM], STAT5 phosphorylation inhibition in MUTZ5 cells (hTSLP-His [8]): 1.85 pM
IC50 CD23 (recombinant human IL-13 [9]): 0.373 nM
IC50 TARC (human TSLP [10]): 0.823 nM

B6: BDG38.126 (antibody, V domains shown)
VH: B1 VH with D28E, A49G, Y53D, I57N
VL: B2 VL with E16Q, R30K, V47I, D76R, Y93S
notes: IgG1
IC50 (hTSLP-His [5]): 5.95 nM
HEK-IL-13 [nM] (IC50, STAT6 reporter) (recombinant human IL-13 [6]): 0.079 nM
Kd (recombinant human IL-13 [11]): 0.0291 nM
koff (recombinant human IL-13 [11]): 0.000143 s⁻¹
kon (recombinant human IL-13 [11]): 4.92e+06 M⁻¹ s⁻¹
Kd (human TSLP [12]): 0.0174 nM
koff (human TSLP [12]): 6.72e-05 s⁻¹
kon (human TSLP [12]): 3.87e+06 M⁻¹ s⁻¹
IC50 [pM], STAT5 phosphorylation inhibition in MUTZ5 cells (hTSLP-His [8]): 0.0421 pM
IC50 CD23 (recombinant human IL-13 [9]): 0.0868 nM
IC50 TARC (human TSLP [10]): 2.58 nM

B8: Ab clone 38.014 (yeast surface display) (scFv, V domains shown)
VH: B1 VH with D28A, I57N, T105S
VL: B1 VL with T29A, N93S, E94S, E96H
notes: YSD clone; also called BDG38_014
binding result (human TSLP [1]): binds

B9: BDG38.112 (antibody, V domains shown)
VH: B1 VH with D28E, V48L, A49G, I57N
VL: B2 VL with E16Q, R19T, V47I, D76R, Y93S, H96T, M97Y
notes: IgG1
Kd (recombinant human IL-13 [2]): 0.0173 nM
koff (recombinant human IL-13 [2]): 4.02e-05 s⁻¹
kon (recombinant human IL-13 [2]): 2.32e+06 M⁻¹ s⁻¹
Kd (human TSLP [3]): 0.258 nM
koff (human TSLP [3]): 0.000274 s⁻¹
kon (human TSLP [3]): 1.06e+06 M⁻¹ s⁻¹
IC50 (hTSLP-His [5]): 29.1 nM
HEK-IL-13 [nM] (IC50, STAT6 reporter) (recombinant human IL-13 [6]): 0.0367 nM
IC50 [pM], STAT5 phosphorylation inhibition in MUTZ5 cells (hTSLP-His [8]): 11400 pM
IC50 CD23 (recombinant human IL-13 [9]): 0.0594 nM
IC50 TARC (human TSLP [10]): 0.104 nM
